Assay results published in patent US20120058906A1.

Legend:
[1] = target: rHuman EGF R/Fc Chimera, CF (R&D Systems Cat#344-ER) (human) (UniProt P00533); assay: ECL (MSD multi-spot), Fab 145 nM; blank 357
[2] = target: rHuman Erythropoietin R/Fc Chimera, CF (R&D Systems Cat#963-ER) (human) (UniProt P19235); assay: ECL (MSD multi-spot), Fab 145 nM; blank 357
[3] = target: rHuman HGF R/c-MET/Fc Chimera, CF (R&D Systems Cat#358-MT/CF) (human) (UniProt P08581); assay: ECL (MSD multi-spot), Fab 145 nM; blank 357
[4] = target: rHuman IGF-1 sR (IGF-1 sR), CF (R&D Systems Cat#391-GR) (human) (UniProt P08069); assay: ECL (MSD multi-spot), Fab 145 nM; blank 357
[5] = target: rHuman Notch-1/Fc Chimera, CF (R&D Systems Cat#3647-TK) (human) (UniProt P46531); assay: ECL (MSD multi-spot), Fab 145 nM; blank 357
[6] = target: rHuman P-Cadherin/Fc Chimera, CF (R&D Systems Cat#861-PC) (human) (UniProt P22223); assay: ECL (MSD multi-spot), Fab 145 nM; blank 357
[7] = target: rHuman EGF R/Fc Chimera, CF (R&D Systems Cat#344-ER) (human) (UniProt P00533); assay: ECL (MSD multi-spot), Fab 580 nM; blank 679
[8] = target: rHuman ErbB2/Fc Chimera, CF (R&D Systems Cat#1129-ER) (human) (UniProt P04626); assay: ECL (MSD multi-spot), Fab 580 nM; blank 679
[9] = target: rHuman Erythropoietin R/Fc Chimera, CF (R&D Systems Cat#963-ER) (human) (UniProt P19235); assay: ECL (MSD multi-spot), Fab 580 nM; blank 679
[10] = target: rHuman HGF R/c-MET/Fc Chimera, CF (R&D Systems Cat#358-MT/CF) (human) (UniProt P08581); assay: ECL (MSD multi-spot), Fab 580 nM; blank 679
[11] = target: rHuman IGF-1 sR (IGF-1 sR), CF (R&D Systems Cat#391-GR) (human) (UniProt P08069); assay: ECL (MSD multi-spot), Fab 580 nM; blank 679
[12] = target: rHuman Notch-1/Fc Chimera, CF (R&D Systems Cat#3647-TK) (human) (UniProt P46531); assay: ECL (MSD multi-spot), Fab 580 nM; blank 679
[13] = target: rHuman P-Cadherin/Fc Chimera, CF (R&D Systems Cat#861-PC) (human) (UniProt P22223); assay: ECL (MSD multi-spot), Fab 580 nM; blank 679
[14] = target: rHuman EGF R/Fc Chimera, CF (R&D Systems Cat#344-ER) (human) (UniProt P00533); assay: ECL (MSD multi-spot), Fab 9.1 nM; blank 276
[15] = target: rHuman ErbB2/Fc Chimera, CF (R&D Systems Cat#1129-ER) (human) (UniProt P04626); assay: ECL (MSD multi-spot), Fab 9.1 nM; blank 276
[16] = target: rHuman Erythropoietin R/Fc Chimera, CF (R&D Systems Cat#963-ER) (human) (UniProt P19235); assay: ECL (MSD multi-spot), Fab 9.1 nM; blank 276
[17] = target: rHuman HGF R/c-MET/Fc Chimera, CF (R&D Systems Cat#358-MT/CF) (human) (UniProt P08581); assay: ECL (MSD multi-spot), Fab 9.1 nM; blank 276
[18] = target: rHuman IGF-1 sR (IGF-1 sR), CF (R&D Systems Cat#391-GR) (human) (UniProt P08069); assay: ECL (MSD multi-spot), Fab 9.1 nM; blank 276
[19] = target: rHuman Notch-1/Fc Chimera, CF (R&D Systems Cat#3647-TK) (human) (UniProt P46531); assay: ECL (MSD multi-spot), Fab 9.1 nM; blank 276
[20] = target: rHuman P-Cadherin/Fc Chimera, CF (R&D Systems Cat#861-PC) (human) (UniProt P22223); assay: ECL (MSD multi-spot), Fab 9.1 nM; blank 276
[21] = target: rHuman EGF R/Fc Chimera, CF (R&D Systems Cat#344-ER) (human) (UniProt P00533); assay: ECL (MSD multi-spot), Fab 36.3 nM; blank 314
[22] = target: rHuman ErbB2/Fc Chimera, CF (R&D Systems Cat#1129-ER) (human) (UniProt P04626); assay: ECL (MSD multi-spot), Fab 36.3 nM; blank 314
[23] = target: rHuman Erythropoietin R/Fc Chimera, CF (R&D Systems Cat#963-ER) (human) (UniProt P19235); assay: ECL (MSD multi-spot), Fab 36.3 nM; blank 314
[24] = target: rHuman HGF R/c-MET/Fc Chimera, CF (R&D Systems Cat#358-MT/CF) (human) (UniProt P08581); assay: ECL (MSD multi-spot), Fab 36.3 nM; blank 314
[25] = target: rHuman IGF-1 sR (IGF-1 sR), CF (R&D Systems Cat#391-GR) (human) (UniProt P08069); assay: ECL (MSD multi-spot), Fab 36.3 nM; blank 314
[26] = target: rHuman Notch-1/Fc Chimera, CF (R&D Systems Cat#3647-TK) (human) (UniProt P46531); assay: ECL (MSD multi-spot), Fab 36.3 nM; blank 314
[27] = target: rHuman P-Cadherin/Fc Chimera, CF (R&D Systems Cat#861-PC) (human) (UniProt P22223); assay: ECL (MSD multi-spot), Fab 36.3 nM; blank 314
[28] = target: rHuman EGF R/Fc Chimera, CF (R&D Systems Cat#344-ER) (human) (UniProt P00533); assay: ECL (MSD multi-spot) screen, antigen spotted on plate, Fab at 0.58 uM; blank spot 403
[29] = target: rHuman ErbB2/Fc Chimera, CF (R&D Systems Cat#1129-ER) (human) (UniProt P04626); assay: as above
[30] = target: rHuman HGF R/c-MET/Fc Chimera, CF (R&D Systems Cat#358-MT/CF) (human) (UniProt P08581); assay: as above
[31] = target: rHuman IGF-1 sR, CF (R&D Systems Cat#391-GR) (human) (UniProt P08069); assay: as above

Sequence of rHuman Erythropoietin R/Fc Chimera, CF (R&D Systems Cat#963-ER) (human) (P19235 25-250, change not shown): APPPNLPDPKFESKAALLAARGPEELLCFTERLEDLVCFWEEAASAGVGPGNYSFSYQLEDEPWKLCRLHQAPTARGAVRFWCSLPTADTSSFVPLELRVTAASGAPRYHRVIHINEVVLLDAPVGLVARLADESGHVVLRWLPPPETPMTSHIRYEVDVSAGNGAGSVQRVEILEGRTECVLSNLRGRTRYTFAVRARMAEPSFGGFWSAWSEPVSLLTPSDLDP

ECL signal [1]: 856 ECL signal
ECL signal [2]: 845 ECL signal
ECL signal [3]: 1170 ECL signal
ECL signal [4]: 794 ECL signal
ECL signal [5]: 860 ECL signal
ECL signal [6]: 850 ECL signal
ECL signal [7]: 1630 ECL signal
ECL signal [8]: 1710 ECL signal
ECL signal [9]: 1580 ECL signal
ECL signal [10]: 2340 ECL signal
ECL signal [11]: 1360 ECL signal
ECL signal [12]: 1580 ECL signal
ECL signal [13]: 2240 ECL signal
ECL signal [14]: 800 ECL signal
ECL signal [15]: 987 ECL signal
ECL signal [16]: 697 ECL signal
ECL signal [17]: 894 ECL signal
ECL signal [18]: 788 ECL signal
ECL signal [19]: 754 ECL signal
ECL signal [20]: 589 ECL signal
ECL signal [21]: 831 ECL signal
ECL signal [22]: 1030 ECL signal
ECL signal [23]: 722 ECL signal
ECL signal [24]: 1060 ECL signal
ECL signal [25]: 799 ECL signal
ECL signal [26]: 633 ECL signal
ECL signal [27]: 684 ECL signal
ECL signal [28]: 1020
ECL signal [29]: 1260
ECL signal [30]: 1710
ECL signal [31]: 1200
Substance: Fab VH4-34_IGHD7-27*01_IGHJ4*01 & V1-4_IGLJ4*01
